Reference: US20120165211A1, “Human Antibodies Cross-Reacting With A Bacterial And A Self Antigen From Atherosclerotic Plaques” (priority 2007, published 2012)

Tests used:
[1] = target: T1, recombinant transgelin (rTAGLN-Origene cod: TP302448) (human, UniProt Q01995 1-201); test: western blot on human transgelin (referred back to)
T1 construct: also called commercial transgelin 1; human transgelin

[2] = target: T1, recombinant transgelin (rTAGLN-Origene …); test: western blot on recombinant transgelin
[3] = target: T2, recombinant transgelin (rTAGLN) (Homo sapiens, UniProt Q01995); type: binding; settings: 4-500 ng rTAGLN per well
T2 construct: purchased Origene TP302448

ompK36 = target: T3, ompK36 (Klebsiella pneumoniae, UniProt Q48473); test: ELISA of 7816 IgG against coated ompK36; type: binding; settings: full IgG1, 9 μg/ml; 8 μg OmpK36 coated; read at 450 nm
T3 construct: 6xHis (N); made in house; host or cells: E. coli BL21 (DE3), pET28b
Experimental: 8 μg of OmpK36 was coated on a 96 well ELISA plate in PBS, pH 5.0, overnight at 4° C. The day after, after three washes with PBS, the plate was blocked with PBS/BSA 1%, and purified 7816IgGs were added (9 μg/ml) to each well. After washing three timed with PBS/tween-20 0.1%, an anti-Human Fc antibody-HRP (SIGMA-Aldrich—diluted 1:8000), was added and incubated for 45-60 min. at 37° C. After five washes with PBS/Tween-20 0.1% 40 μL of TMB solution (Pierce) in every well was added and incubated for 15 min. at 37° C. After addition of 40 μl of Stop Solution (H2SO4 0.1 M) in every well the plates were read at 450 nm.

[4] = target: T4, transgelin 1 (SM22) from coronary plaque lysate (human, UniProt Q01995 2-201); test: 2D electrophoresis western blot of coronary plaque lysate with 7816FLAG, spots identified by MALDI-ToF
T4 construct: also called TAGLN; spots C1 and C2

purified OmpK36 = target: T5, purified OmpK36 (Klebsiella pneumoniae, UniProt Q48473); test: Western blot of purified OmpK36 with recombinant Fabs; type: binding; settings: 400 ng OmpK36His per lane; Fabs at 10 μg/L; blocking PBS/BSA10%
T5 construct: made in house; host or cells: E. coli BL21 (DE3), pET28b (BamHI/XhoI cloning)
Experimental: 400 ng of purified OmpK36His was loaded on polyacrylamide gel (all lanes) and SDS-PAGE was performed. Proteins were blotted on PVDF membrane for 2 h at 350 mA. After blocking with PBS/BSA10% the membrane was cut to single lanes and each lane was incubated for 1 h with Fabs at 10 μg/L. After three washes membrane was incubated with anti-Human Light Chain K antibody (Sigma).

T1 sequence (Q01995 whole entry): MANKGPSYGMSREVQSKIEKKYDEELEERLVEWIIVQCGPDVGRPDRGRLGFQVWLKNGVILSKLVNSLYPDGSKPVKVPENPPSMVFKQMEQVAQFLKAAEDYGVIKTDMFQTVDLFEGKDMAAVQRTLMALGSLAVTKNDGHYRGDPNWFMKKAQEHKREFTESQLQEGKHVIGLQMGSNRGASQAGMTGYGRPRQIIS
T2 sequence (Q01995 whole entry): as above
T4 sequence (Q01995 2-201 limits assumed): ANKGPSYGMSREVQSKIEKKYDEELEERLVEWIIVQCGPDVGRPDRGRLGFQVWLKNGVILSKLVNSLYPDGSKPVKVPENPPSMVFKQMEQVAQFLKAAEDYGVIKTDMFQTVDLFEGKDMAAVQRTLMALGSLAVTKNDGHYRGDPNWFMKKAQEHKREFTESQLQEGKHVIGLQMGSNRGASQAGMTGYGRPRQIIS

B1: Fab 7816 (Fab, V domains shown)
VH: LESGPGQVKPSQTLSLTCTVSGGSIGSGSYSWNWIRQPAGRGLEWIGRISDSGNTNFNPSLKSRVTMSVDTSKNQFALKLTSVTAADTATYFCARGRGILTGLFDYWGQGSLVSVSS
VL: SPDSLAVSPGGRATIKCASSQSVLDNSNHKNSLAWYQQKPGLPPKLLIYWASTRYSGVPDRFSGSGSGTDFTLTINNLQAADVAVYFCQQYYSTPWTFGQGTKVE
notes: also called Fab E7816
[1]
  binding result: binds

B2: IgG7816 (antibody, V domains shown)
VH: B1 VH
VL: B1 VL
[2]
  binding result: binds

B3: IgG7816: heavy and light chains of Fab 7816 cloned in pAc-k-Fc vector, expressed as IgG in Sf9 insect cells (antibody, V domains shown)
VH: LESGPGQVKPSQTLSLTCTVSGGSIGSGSYSWNWIRQPAGRGLEWIGRISDSGNTNFNPSLKSRVTMSVDTSKNQFALKLTSVTAADTATYFCARGRGILTGLFDYWGQGSLVSVSSASTKGPSVFPLAPSSKSTSGGTAALGCLVKD
VL: B1 VL
[3]
  binding to human transgelin in Western blot: positive band is visible
ompK36
  binding to ompK36 in ELISA: binds specifically to ompK36

B4: 7816Fab-FLAG (Fab, V domains shown)
VH: B1 VH
VL: B1 VL
[4]
  binding result: binds

B5: Fab 248: human recombinant Fab; heavy chain SEQ ID NO:14, light chain SEQ ID NO:16 (antibody, listed as Homo sapiens)
heavy: LESGGGLVKPGGSLRLSCAASGFTFSDYYMSWIRQAPGKGLEFISYISSGGDTIHHADSVKGRFTISRDNAKKSLYLQMNSLRVEDTAVYYCACRGVWGQGT
light: SPATVSVSPGERATLSCRASQSISFHLAWYQQKPGQAPSLLIYGTSTRATGIPARFSGSGSGTEFTLTISSLQSEDSAVYYCQQYHNWPPLTFGGGT
Purified OmpK36
  reactivity with purified OmpK36 in western-blot: react with purified OmpK36

B6: Fab1630: human recombinant Fab from plaque 12 library (ID12LIB); HC SEQ ID NO:10, LC SEQ ID NO:12 (antibody, listed as Homo sapiens)
heavy: GGGLVKPGGSLRLSCTASGFTFSNGWMSWVRQAPGKGLEWVGRIRSNPDGGTTDYAAPFKGRFTISRDDSKNTLFLQVTSLKTEDTGVYYCITDRGDWKWGVPRDLTYWGQGTLVTVSSASTKGPSVFPLAPSSKSTSGGTAALGCLVKDYFPEPVTV
light: AMAELTQSPDTLSLSPGERATLSCRASQSVDSNYLAWFQQKPGQAPRLLIYGAYSRATGIPDRFSGSGSGTDFTLTISRLEPEDFVVYYCQQYLSPPITFGQGTRLETKRTVAAPSVFIFPPSD
Purified OmpK36
  reactivity with purified OmpK36 in western-blot: react with purified OmpK36
[3]
  binding to human transgelin in Western blot: recognize human transgelin

B7: Fab 1630 (Fab, V domains shown)
VH: GGGLVKPGGSLRLSCTASGFTFSNGWMSWVRQAPGKGLEWVGRIRSNPDGGTTDYAAPFKGRFTISRDDSKNTLFLQVTSLKTEDTGVYYCITDRGDWKWGVPRDLTYWGQGTLVTVSS
VL: MAELTQSPDTLSLSPGERATLSCRASQSVDSNYLAWFQQKPGQAPRLLIYGAYSRATGIPDRFSGSGSGTDFTLTISRLEPEDFVVYYCQQYLSPPITFGQGTRLETKR
[1]
  binding result: binds
